For 1 molecule, koff, Kd and kon results are on record in patent US20220119534A1 (DRAGONFLY THERAPEUTICS, published 2022).

In assay [1] the target is T1, Human CLEC12A-His (recombinant, K244 WT) (human, UniProt Q5QGZ9 65-265).
T1 construct: Made in house (Dragonfly Tx); also called hCLEC12A; hCLEC12A-His; not shown: His tag
T1 sequence: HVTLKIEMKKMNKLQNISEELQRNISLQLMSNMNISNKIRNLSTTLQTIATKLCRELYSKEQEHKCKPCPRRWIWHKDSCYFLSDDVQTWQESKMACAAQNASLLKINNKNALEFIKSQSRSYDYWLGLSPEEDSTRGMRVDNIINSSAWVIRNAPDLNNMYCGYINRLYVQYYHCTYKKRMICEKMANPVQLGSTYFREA
The experiment in a line: SPR 37C, AB0089 captured on anti-hFc, two-state fit (kd1).

Assay [2] addresses T1, Human CLEC12A-His (recombinant, K244 WT). Kind of assay: SPR, untreated CLEC12A, two-state fit (kd1).
Assay [3] addresses T2, mFc-hNKG2D (recombinant mFc-tagged human NKG2D dimer) (human, UniProt P26718 73-216).
T2 construct: extracellular domain; Made in house; not shown: mouse Fc tag
T2 sequence (looked up): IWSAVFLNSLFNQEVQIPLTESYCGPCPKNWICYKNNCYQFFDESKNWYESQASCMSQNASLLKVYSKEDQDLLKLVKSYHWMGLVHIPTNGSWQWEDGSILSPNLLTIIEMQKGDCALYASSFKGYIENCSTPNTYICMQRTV
The experiment in a line: SPR; after pH 5.0, 40C, 2 wks (n = 2). (In general: In SPR one partner is held on a chip, and binding of the other changes the refractive index at the surface.)

Assay [4] concerns the target T3, Human CD32b (FcγRIIb) (human, UniProt P31994 46-217, limits assumed, biotinylated).
T3 construct: Bought recombinant receptor; also called hFcγRIIb; CD32b (FcγR2b)
T3 sequence (looked up): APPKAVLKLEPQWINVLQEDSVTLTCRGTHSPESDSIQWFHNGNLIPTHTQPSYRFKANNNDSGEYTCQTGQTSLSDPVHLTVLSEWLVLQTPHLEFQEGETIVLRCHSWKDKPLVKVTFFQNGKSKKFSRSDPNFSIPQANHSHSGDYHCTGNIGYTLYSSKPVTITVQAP
The experiment in a line: SPR 25C, average.

The target of assay [5] is T4, Human CD16a V158 (FcγRIIIa V158) (human, UniProt P08637 17-208, biotinylated).
T4 construct: Bought recombinant receptor; also called hCD16aV; hFcγRIIIa V158
T4 sequence (P08637 17-208 F176V limits assumed): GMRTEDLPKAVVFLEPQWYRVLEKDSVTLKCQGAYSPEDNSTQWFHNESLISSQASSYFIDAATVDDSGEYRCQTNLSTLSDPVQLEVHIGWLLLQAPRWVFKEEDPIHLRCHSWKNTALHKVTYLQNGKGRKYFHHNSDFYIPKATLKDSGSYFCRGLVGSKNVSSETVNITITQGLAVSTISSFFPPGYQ
Kind of assay: SPR; after pH 8, 40C, 2 wks.

For assay [6], the target named is T1, Human CLEC12A-His (recombinant, K244 WT). Kind of assay: SPR, two-state fit (kd1); control (fully purified protein study).

Where “and” joins values, the source holds several entries; their conditions need not be identical. Identical values can stand only once.

B1: AB0089 TriNKET (bispecific antibody, human IgG1, kappa)
chain: QLQLQESGPGLVKPSETLSLTCTVSGFSLTNYGLHWIRQPPGKCLEWIGVIWVGGATDYNPSLKSRVTISVDTSKNQFSLKLSSVQAADTAVYYCAKGDYGDTLDYWGQGTLVTVSSGGGGSGGGGSGGGGSGGGGSDIQMTQSPSSLSASVGDRVTITCHASQNINFWLSWYQQKPGKAPKLLIYEASNLHTGVPSRFSGSGSGTDFTLTISSLQPEDFATYYCQQSHSYPLTFGCGTKLEIKGSDKTHTCPPCPAPELLGGPSVFLFPPKPKDTLMISRTPEVTCVVVDVSHEDPEVKFNWYVDGVEVHNAKTKPREEQYNSTYRVVSVLTVLHQDWLNGKEYKCKVSNKALPAPIEKTISKAKGQPREPRVYTLPPCRDELTKNQVSLTCLVKGFYPSDIAVEWESNGQPENNYKTTPPVLVSDGSFTLYSKLTVDKSRWQQGNVFSCSVMHEALHNHYTQKSLSLSPG
heavy: EVQLVESGGGLVKPGGSLRLSCAASGFTFSSYSMNWVRQAPGKGLEWVSSISSSSSYIYYADSVKGRFTISRDNAKNSLYLQMNSLRAEDTAVYYCARGAPIGAAAGWFDPWGQGTLVTVSSASTKGPSVFPLAPSSKSTSGGTAALGCLVKDYFPEPVTVSWNSGALTSGVHTFPAVLQSSGLYSLSSVVTVPSSSLGTQTYICNVNHKPSNTKVDKKVEPKSCDKTHTCPPCPAPELLGGPSVFLFPPKPKDTLMISRTPEVTCVVVDVSHEDPEVKFNWYVDGVEVHNAKTKPREEQYNSTYRVVSVLTVLHQDWLNGKEYKCKVSNKALPAPIEKTISKAKGQPREPQVCTLPPSRDELTENQVSLTCLVKGFYPSDIAVEWESNGQPENNYKTTPPVLDSDGSFFLYSWLTVDKSRWQQGNVFSCSVMHEALHNHYTQKSLSLSPG
light: DIQMTQSPSSVSASVGDRVTITCRASQGISSWLAWYQQKPGKAPKLLIYAASSLQSGVPSRFSGSGSGTDFTLTISSLQPEDFATYYCQQGVSFPRTFGGGTKVEIKRTVAAPSVFIFPPSDEQLKSGTASVVCLLNNFYPREAKVQWKVDNALQSGNSQESVTEQDSKDSTYSLSSTLTLSKADYEKHKVYACEVTHQGLSSPVTKSFNRGEC
notes: F3' format heterodimer of three chains; human IgG1 Fc with EW-RVT and Y349C/S354C mutations; also called AB0089 Lot AB0089-002; CLEC12A TriNKET AB0089
In general, koff refers to the first-order rate constant of dissociation. What is called Kd is the free concentration of one partner at which half of the binding sites on the other are occupied at equilibrium, for simple one-to-one binding. Usually kon stands for a measure of how fast the partners come together. In the case of B1, the off-rate constant (koff) is 0.0426 s⁻¹ and 0.0449 s⁻¹ and 0.0432 s⁻¹ in assay [1]; 0.0398 s⁻¹ in assay [2]; 0.131 s⁻¹ in assay [3]; 0.0279 s⁻¹ in assay [5]; 0.0272 s⁻¹ in assay [6]. For the same molecule, the figures for the Kd in assay [3], in assay [4] and in assay [5] were 703 nM, 6300 nM and 350 nM, respectively. For the same molecule, the kon in assay [3] was 187000 M⁻¹ s⁻¹; in assay [5] it was 79400 M⁻¹ s⁻¹.
